Sequences and labels used below:
B1: NTCP wild type, NTCP-FLAG and NTCP-V5-His expressed in HEK293 cells [human] / NTCP wild type, NTCP-FLAG and NTCP-V5-His expressed in HEK293 cells [human] (parent)
chain 1: MEAHNASAPFNFTLPPNFGKRPTDLALSVILVFMLFFIMLSLGCTMEFSKIKAHLWKPKGLAIALVAQYGIMPLTAFVLGKVFRLKNIEALAILVCGCSPGGNLSNVFSLAMKGDMNLSIVMTTCSTFCALGMMPLLLYIYSRGIYDGDLKDKVPYKGIVISLVLVLIPCTIGIVLKSKRPQYMRYVIKGGMIIILLCSVAVTVLSAINVGKSIMFAMTPLLIATSSLMPFIGFLLGYVLSALFCLNGRCRRTVSMETGCQNVQLCSTILNVAFPPEVIGPLFFFPLLYMIFQLGEGLLLIAIFWCYEKFKTPKDKTKMIYTAATTEETIPGALGNGTYKGEDCSPCTA
chain 2: B1 chain 1

The variants in the experiment derive from B1. Briefly: co-IP (IP anti-FLAG agarose, western blot anti-V5, ImageJ band quantification). To be noted: with NTCP wild type, HEK293 cells co-transfected with NTCP-FLAG and NTCP-V5-His, n = 3 independent experiments, parent: 100, read off a plot. A general note: In western blotting, separated proteins are transferred to a membrane and probed.
For chain 1 G233L G237L, the percent of parent was 130 % of control. Next, chain 1 G60L A64L G233L G237L: 160 % of control. Next, chain 1 G60L A64L: 110 % of control.

For the origin of these results see PMC8257933.
